Experimental data reported in patent publication US20240043566A1 (SUZHOU TRANSCENTA THERAPEUTICS, published 2024).

Target: T1, human PD-L1-Fc (Sino Biological, 70110-D02H) (human, UniProt Q9NZQ7 19-239)
T1 construct: also called hPD-L1-Fc; not shown: Fc part
Assay: BLI, PD-L1-Fc loaded, scFv in solution

T1 sequence (Q9NZQ7 19-239 limits assumed, stated change not applied): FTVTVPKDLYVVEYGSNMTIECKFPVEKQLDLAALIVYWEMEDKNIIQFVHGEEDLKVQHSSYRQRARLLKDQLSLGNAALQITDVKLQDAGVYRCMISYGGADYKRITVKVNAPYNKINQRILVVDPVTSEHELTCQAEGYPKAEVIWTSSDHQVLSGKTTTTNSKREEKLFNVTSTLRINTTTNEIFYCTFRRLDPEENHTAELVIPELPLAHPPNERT

| Binder | Fold increase (over L-CDR1-WT) |
| --- | --- |
| 4B6 scFv variant L-CDR1-1 (scFv, also called 4B6-L-CDR1-1) scFv: DIQMTQSPSSLSASVGDRVTITCKASQNVGAIVAWYQQKPGKAPKLLIYSASNRYTGVPSRFSGSGSGTDFTLTISSLQPEDIATYYCQQYSNYPTFGQGTKLEIKGGGGSGGGGSGGGGSQVQLVQSGAEVKKPGASVKVSCKASGYVFTDYYMNWVRQAPGQSLEWMGDINPNNAGTSYNHKFKGRVTVTVDKSISTAYMELSRLRSDDTAVYYCVKWGDGPFAYWGQGTLVTVSS | 4.08 fold |
| 4B6 scFv variant L-CDR1-2 (scFv, also called 4B6-L-CDR1-2) scFv: DIQMTQSPSSLSASVGDRVTITCKASQNVPAAVAWYQQKPGKAPKLLIYSASNRYTGVPSRFSGSGSGTDFTLTISSLQPEDIATYYCQQYSNYPTFGQGTKLEIKGGGGSGGGGSGGGGSQVQLVQSGAEVKKPGASVKVSCKASGYVFTDYYMNWVRQAPGQSLEWMGDINPNNAGTSYNHKFKGRVTVTVDKSISTAYMELSRLRSDDTAVYYCVKWGDGPFAYWGQGTLVTVSS | 4.96 fold |
| 4B6 scFv variant L-CDR1-3 (scFv, also called 4B6-L-CDR1-3) scFv: DIQMTQSPSSLSASVGDRVTITCKASQNVKGAVAWYQQKPGKAPKLLIYSASNRYTGVPSRFSGSGSGTDFTLTISSLQPEDIATYYCQQYSNYPTFGQGTKLEIKGGGGSGGGGSGGGGSQVQLVQSGAEVKKPGASVKVSCKASGYVFTDYYMNWVRQAPGQSLEWMGDINPNNAGTSYNHKFKGRVTVTVDKSISTAYMELSRLRSDDTAVYYCVKWGDGPFAYWGQGTLVTVSS | 10.1 fold |
